Source: patent publication US12116428B2, “Lipid analogs and liposomes comprising same” (Yeda Research and Development Co. Ltd., priority 2015, dated 2024)

Key:
[1] = Zeta potential measurement; format: physicochemical; conditions: FIG. 11: SUVs of HSPC and DSG-PMPC
[2] = Micelle formation in water by dynamic light scattering; format: physicochemical; conditions: 20 mg/ml in pure water (pH 5), one day

1,2-distearoyl-sn-glycerol-poly((O-(2-methacryloyloxyethyl) phosphorylcholine) [DSG-PMPC]
net charge (zeta potential) [1]: zero

distearoylphosphatidylethanolamine-substituted poly(O-(2-methacryloyloxyethyl)phosphorylcholine) [DSPE-PMPC]
micelle formation [2]: formed micelles
